Results reported in patent US20210087281A1 (AGOMAB THERAPEUTICS, published 2021).
One block for each binder: values may come before it.

Tests used:
human MET ECD [1] = target: T1, human MET ECD (human, UniProt P08581 25-932); assay: ELISA, MET ECD in solid phase, crude periplasmic Fab
T1 construct: range 1-932; recombinant ECD made by the applicants; the stated range begins at residue 1, so it includes the signal peptide of the entry; also called hMET; hMET ECD
Description: (§1) Fab-expressing phages from the libraries described above were produced according to standard phage display protocols. For selection, phages were first adsorbed to immobilized recombinant human MET ECD, washed, and then eluted using trypsin. After two cycles of selection with human MET ECD, two other cycles were performed in the same fashion using mouse MET ECD. In parallel, we also selected phages alternating a human MET ECD cycle with a mouse MET ECD cycle, for a total of four cycles. Phages selected by the two approaches were pooled together and then used to infect TG1 E. coli. Individual colonies were isolated and secretion of Fabs was induced using IPTG (Fermentas). The Fab-containing periplasmic fraction of bacteria was collected and tested for its ability to bind human and mouse MET ECD by Surface Plasmon Resonance (SPR). Human or mouse MET ECD was immobilized on a CM-5 chip using amine coupling in sodium acetate buffer (GE Healthcare). The Fab-containing periplasmic extracts were loaded into a BIACORE 3000 apparatus (GE Healthcare) with a flow rate of 30 μl/min. The Fab off-rates (koff) were measured over a two minute period. Binding of Fabs to human and mouse MET was further characterized by ELISA using MET ECD in solid phase and periplasmic crude extract in solution.
(§2) TABLE 7 Fabs binding to both human MET (hMET) and mouse MET (mMET). Fabs are grouped in families based on their VH CDR3 sequence. Binding of Fabs to human and mouse MET ECD was determined by Surface Plasmon Resonance (SPR) and by ELISA. SPR values represent the koff (s⁻¹). ELISA values represent the Optical Density (OD) at 450 nm (AU, arbitrary units). Both SPR and ELISA were performed using crude periplasmic extracts. Fab concentration in the extract was not determined. Values are the mean of three independent measurements.

mouse MET ECD [2] = target: T2, mouse MET ECD (mouse, UniProt P16056 25-931); assay: as above
T2 construct: range 1-931; recombinant ECD made by the applicants; the stated range begins at residue 1; also called mMET; mMET ECD
Description: as §1, §2

human MET ECD [3] = target: T1, human MET ECD; assay: SPR, MET ECD on chip, crude periplasmic Fab
Description: as §1, §2

mouse MET ECD [4] = target: T2, mouse MET ECD; assay: SPR, MET ECD on chip, crude periplasmic Fab
Description: as §1, §2

[5] = target: T3, native mouse MET on living cells (mouse, UniProt P16056 25-1379); assay: cell-based or functional assay
[6] = target: T4, native human MET on living cells (human, UniProt P08581 25-1390); assay: cell-based or functional assay
human MET ECD [7] = target: T1, human MET ECD; assay: ELISA, MET ECD in solid phase, mAb 0-50 nM
Description: Using human MET as a template, we mutagenized each of these residues in different permutations, generating a series of MET mutants that are fully human except for specific residues, which are llama. Next, we tested the affinity of selected SEMA-binding mAbs (71D6, 71C3, 71D4, 71A3, 71G2) and PSI-binding mAbs (76H10 and 71G3) for these MET mutants by ELISA. To this end, the various MET proteins were immobilized in solid phase (100 ng/well in a 96-well plate) and then exposed to increasing concentrations of antibodies (0-50 nM) solution. […] Wild-type human MET was used as positive control.
TABLE 18 The epitopes of MET responsible for agonistic antibody binding represent residues conserved among H. sapiens, M. musculus, R. norvegicus, M. fascicularis but not among the same species and L. glama. The relevance of residues conserved among human, mouse, rat, cynomolgus monkey but not llama MET for binding to agonistic mAbs was tested by ELISA. Wild-type (WT) or mutant (MT) human MET ECD was immobilized in solid phase and exposed to increasing concentrations of mAbs in solution. […] All binding values were normalized to the WT protein and are expressed as % binding (EMAX) compared to WT MET.

[8] = target: T4, native human MET on living cells; assay: flow cytometry, A549 cells
Description: (§3) We also analysed whether chimeric anti-MET antibodies bound to native human and mouse MET in living cells. […] Antibody binding to cells was analysed by flow cytometry using phycoerythrin-conjugated anti-human IgG1 antibodies (eBioscience) and a CyAn ADP analyser (Beckman Coulter). As a positive control for human MET binding, we used a commercial mouse anti-human MET antibody (R&D Systems) and phycoerythrin-conjugated anti-mouse IgG1 antibodies (eBioscience).
(§4) As a positive control for mouse MET binding we used a commercial goat anti-mouse MET antibody (R&D Systems) and phycoerythrin-conjugated anti-goat IgG1 antibodies (eBioscience). […] Consistent with the data obtained in ELISA, maximal binding (EMAX) varied depending on antibody, but was similar in human and mouse cells.

human MET ECD [9] = target: T1, human MET ECD; assay: ELISA, MET ECD in solid phase, mAb 0-20 nM
Description: (§5) Production (by transient transfection of mammalian cells) and purification (by protein A affinity chromatography) of the resulting chimeric llama-human IgG1 molecules was outsourced to U-protein Express. Binding of chimeric mAbs to MET was determined by ELISA using hMET or mMET ECD in solid phase and increasing concentrations of antibodies (0-20 nM) in solution. […] Binding capacity (EMAX) varied from antibody to antibody, possibly due to partial epitope exposure in the immobilized antigen, but was similar in the human and mouse setting.

mouse MET ECD [10] = target: T2, mouse MET ECD; assay: ELISA, MET ECD in solid phase, mAb 0-20 nM
Description: as §5

[11] = target: T3, native mouse MET on living cells; assay: cell-based or functional assay; remark: listed apart in the source
[12] = target: T4, native human MET on living cells; assay: cell-based or functional assay; remark: listed apart in the source
[13] = target: T5, mouse MET-Fc (R&D Systems) (mouse, UniProt P16056 25-929, limits assumed); assay: competition ELISA, mMET-Fc in solid phase, competitor 0.3 nM biotinylated mHGF
T5 construct: bought chimeric protein; also called mMET; not shown: Fc part
Description: (§6) To investigate along this line, we tested the competition between mAbs and HGF by ELISA. Recombinant human and mouse HGF (R&D Systems) were biotinylated at the N-terminus using NHS-LC-biotin (Thermo Scientific). MET-Fc protein, either human or mouse (R&D Systems), was immobilized in solid phase and then exposed to 0.3 nM biotinylated HGF, either human or mouse, in the presence of increasing concentrations of antibodies (0-120 nM).
(§7) A MET-Fc chimeric protein (either human or mouse) was immobilized in solid phase and exposed to a fixed concentration of biotinylated HGF (either human or mouse), in the presence of increasing concentrations of antibodies. […] Antibody-HGF competition is expressed as IC₅₀ (the concentration that achieves 50% competition) and IMAX (the maximum % competition reached at saturation).

[14] = target: T3, native mouse MET on living cells; assay: cell-based or functional assay; remark: listed apart in the source
[15] = target: T4, native human MET on living cells; assay: cell-based or functional assay; remark: listed apart in the source
[16] = target: human MET ECD mutant D (mutations 1, 2) (human) (UniProt P08581); assay: ELISA, MET ECD in solid phase, mAb 0-50 nM
[17] = target: human MET ECD mutant H (mutations 2, 4) (human) (UniProt P08581); assay: ELISA, MET ECD in solid phase, mAb 0-50 nM
[18] = target: human MET ECD mutant E (mutations 2, 3, 4) (human) (UniProt P08581); assay: ELISA, MET ECD in solid phase, mAb 0-50 nM
[19] = target: human MET ECD mutant A (mutations 1, 2, 3) (human) (UniProt P08581); assay: ELISA, MET ECD in solid phase, mAb 0-50 nM
[20] = target: T6, human MET-Fc (R&D Systems) (human, UniProt P08581 25-932); assay: competition ELISA, hMET-Fc in solid phase, competitor 0.3 nM biotinylated hHGF
T6 construct: extracellular domain; bought chimeric protein; also called hMET; not shown: Fc portion of human IgG1
Description: as §6, §7

[21] = target: T3, native mouse MET on living cells; assay: flow cytometry, MLP29 cells
Description: as §3, §4

[22] = target: T3, native mouse MET on living cells; assay: cell-based or functional assay; remark: listed apart in the source
[23] = target: T4, native human MET on living cells; assay: cell-based or functional assay; remark: listed apart in the source

T4 sequence (P08581 25-1390): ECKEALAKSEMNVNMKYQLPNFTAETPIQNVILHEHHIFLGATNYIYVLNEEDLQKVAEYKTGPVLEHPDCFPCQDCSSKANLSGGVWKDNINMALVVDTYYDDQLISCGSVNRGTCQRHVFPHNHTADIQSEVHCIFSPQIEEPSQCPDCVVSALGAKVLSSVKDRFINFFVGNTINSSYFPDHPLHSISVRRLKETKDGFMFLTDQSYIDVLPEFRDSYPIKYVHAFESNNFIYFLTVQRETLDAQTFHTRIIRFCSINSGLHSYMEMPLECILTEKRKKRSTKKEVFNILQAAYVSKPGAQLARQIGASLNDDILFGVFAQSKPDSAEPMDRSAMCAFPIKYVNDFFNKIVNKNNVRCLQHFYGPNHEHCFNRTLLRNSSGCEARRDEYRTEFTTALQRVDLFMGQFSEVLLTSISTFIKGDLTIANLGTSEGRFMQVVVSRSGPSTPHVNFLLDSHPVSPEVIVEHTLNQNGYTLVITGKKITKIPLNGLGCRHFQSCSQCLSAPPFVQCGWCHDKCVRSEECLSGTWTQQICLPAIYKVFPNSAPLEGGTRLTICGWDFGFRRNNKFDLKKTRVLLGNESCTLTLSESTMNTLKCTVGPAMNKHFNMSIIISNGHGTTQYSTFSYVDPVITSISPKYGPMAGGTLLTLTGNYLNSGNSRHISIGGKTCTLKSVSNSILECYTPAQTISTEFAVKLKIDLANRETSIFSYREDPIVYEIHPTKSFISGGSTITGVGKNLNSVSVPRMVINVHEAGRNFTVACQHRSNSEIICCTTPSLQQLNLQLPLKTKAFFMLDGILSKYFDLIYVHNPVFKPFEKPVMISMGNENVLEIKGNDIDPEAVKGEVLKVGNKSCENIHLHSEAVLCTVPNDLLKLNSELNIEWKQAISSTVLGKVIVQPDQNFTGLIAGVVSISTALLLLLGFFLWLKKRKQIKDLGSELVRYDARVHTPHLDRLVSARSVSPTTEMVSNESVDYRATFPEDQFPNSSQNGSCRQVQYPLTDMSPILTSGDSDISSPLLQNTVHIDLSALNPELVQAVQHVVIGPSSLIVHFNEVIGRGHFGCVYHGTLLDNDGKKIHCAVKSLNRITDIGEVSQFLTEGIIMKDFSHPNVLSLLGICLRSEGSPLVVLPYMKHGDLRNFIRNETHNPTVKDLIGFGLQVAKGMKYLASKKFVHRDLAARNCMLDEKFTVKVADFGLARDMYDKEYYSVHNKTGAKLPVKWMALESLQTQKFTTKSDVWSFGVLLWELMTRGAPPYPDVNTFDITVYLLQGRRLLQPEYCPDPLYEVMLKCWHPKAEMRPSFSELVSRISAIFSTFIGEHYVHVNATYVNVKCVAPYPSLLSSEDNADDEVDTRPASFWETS
T1 sequence (P08581 25-932 limits assumed, form in doubt): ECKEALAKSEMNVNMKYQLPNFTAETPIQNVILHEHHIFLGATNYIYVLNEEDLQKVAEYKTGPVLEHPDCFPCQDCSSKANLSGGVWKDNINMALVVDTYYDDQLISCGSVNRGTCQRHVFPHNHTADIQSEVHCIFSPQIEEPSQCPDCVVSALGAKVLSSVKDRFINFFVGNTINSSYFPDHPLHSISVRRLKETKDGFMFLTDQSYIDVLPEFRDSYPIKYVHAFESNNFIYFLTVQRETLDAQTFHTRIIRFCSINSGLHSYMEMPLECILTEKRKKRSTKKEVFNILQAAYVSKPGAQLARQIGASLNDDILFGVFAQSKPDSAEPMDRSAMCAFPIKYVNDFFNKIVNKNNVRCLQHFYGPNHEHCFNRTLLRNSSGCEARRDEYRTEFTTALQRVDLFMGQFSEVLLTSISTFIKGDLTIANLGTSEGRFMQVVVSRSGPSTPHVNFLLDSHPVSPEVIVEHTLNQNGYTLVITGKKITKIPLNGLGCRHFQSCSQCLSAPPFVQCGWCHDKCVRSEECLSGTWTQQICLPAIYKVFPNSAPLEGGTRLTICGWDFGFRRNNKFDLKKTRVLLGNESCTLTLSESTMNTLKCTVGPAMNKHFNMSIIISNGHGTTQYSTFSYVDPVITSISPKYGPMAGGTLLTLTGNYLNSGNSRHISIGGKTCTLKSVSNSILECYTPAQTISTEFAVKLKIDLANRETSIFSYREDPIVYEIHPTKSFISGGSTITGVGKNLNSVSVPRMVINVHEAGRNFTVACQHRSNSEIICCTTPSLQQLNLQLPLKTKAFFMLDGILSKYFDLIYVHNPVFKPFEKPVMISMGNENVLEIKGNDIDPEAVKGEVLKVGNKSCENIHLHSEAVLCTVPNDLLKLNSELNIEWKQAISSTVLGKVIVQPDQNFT
T6 sequence (P08581 25-932): as the sequence (P08581 25-932 limits assumed, form in doubt) above

- OD450 (human MET ECD [1]): 3.46 AU
- OD450 (mouse MET ECD [2]): 3.44 AU
- koff (human MET ECD [3]): 0.00142 s⁻¹
- koff (mouse MET ECD [4]): 0.00141 s⁻¹
B1: 71G3 Fab (Fab, V domains shown)
VH: QVQLVESGGGLVQPGGSLRVSCAASGFTFSTYYMSWVRQAPGKGLEWVSDIRTDGGTYYADSVKGRFTMSRDNAKNTLYLQMNSLKPEDTALYYCARTRIFPSGYDYWGQGTQVTVSS
VL: QAVVTQEPSLSVSPGGTVTLTCGLSSGSVTTSNYPGWFQQTPGQAPRTLIYNTNSRHSGVPSRFSGSISGNKAALTIMGAQPEDEADYYCSLYPGSTTVFGGGTHLTVL
notes: llama Fab (VH-CH1 and lambda VL-CL) with MYC flag, crude periplasmic extract

- phospho-MET ELISA EC50, MLP29 cells [5]: 0.21 nM
- phospho-MET ELISA EMAX (% HGF activity), MLP29 cells [5]: 115%
- phospho-MET ELISA EC50, A549 cells [6]: 0.32 nM
- phospho-MET ELISA EMAX (% HGF activity), A549 cells [6]: 102%
- % binding (EMAX) compared to WT MET (human MET ECD [7]): 100 % WT MET ECD
- EC50 [8]: 0.259 nM
- EMAX [8]: 113 % relative to control
- EC50 (human MET ECD [9]): 0.026 nM
- EMAX (OD450) (human MET ECD [9]): 2.08 AU
- EC50 (mouse MET ECD [10]): 0.049 nM
- EMAX (OD450) (mouse MET ECD [10]): 2.01 AU
- IC50 [13]: 0.34 nM
- IMAX [13]: 90.5%
- branches per spheroid, MLP29 cells, 0.5 nM [14]: 32.7 branches
- branches per spheroid, MLP29 cells, 2.5 nM [14]: 39 branches
- branches per spheroid, MLP29 cells, 12.5 nM [14]: 41.3 branches
- branches per spheroid, LOC cells, 0.5 nM [15]: 29 branches
- branches per spheroid, LOC cells, 2.5 nM [15]: 29 branches
- branches per spheroid, LOC cells, 12.5 nM [15]: 32.7 branches
- % binding (EMAX) compared to WT MET [16]: 128 % WT MET ECD
- % binding (EMAX) compared to WT MET [17]: 38.6 % WT MET ECD
- % binding (EMAX) compared to WT MET [18]: 43.6 % WT MET ECD
- % binding (EMAX) compared to WT MET [19]: 103 % WT MET ECD
- IC50 [20]: 0.29 nM
- IMAX [20]: 98.3%
- EC50 [21]: 0.383 nM
- EMAX [21]: 121 % relative to control
- scatter score 0-4, MLP29, 0.001 nM [22]: 0 score
- scatter score 0-4, MLP29, 0.004 nM [22]: 1 score
- scatter score 0-4, MLP29, 0.012 nM [22]: 2 score
- scatter score 0-4, MLP29, 0.037 nM [22]: 3 score
- scatter score 0-4, MLP29, 0.111 nM [22]: 4 score
- scatter score 0-4, MLP29, 0.333 nM [22]: 4 score
- scatter score 0-4, MLP29, 1.000 nM [22]: 4 score
- scatter score 0-4, MLP29, 3.000 nM [22]: 4 score
- scatter score 0-4, MLP29, 9.000 nM [22]: 4 score
- scatter score 0-4, HPAF-II, 0.001 nM [23]: 0 score
- scatter score 0-4, HPAF-II, 0.004 nM [23]: 1 score
- scatter score 0-4, HPAF-II, 0.012 nM [23]: 2 score
- scatter score 0-4, HPAF-II, 0.037 nM [23]: 3 score
- scatter score 0-4, HPAF-II, 0.111 nM [23]: 4 score
- scatter score 0-4, HPAF-II, 0.333 nM [23]: 4 score
- scatter score 0-4, HPAF-II, 1.000 nM [23]: 4 score
- scatter score 0-4, HPAF-II, 3.000 nM [23]: 4 score
- scatter score 0-4, HPAF-II, 9.000 nM [23]: 4 score
B2: 71D6 chimeric llama-human IgG1 mAb (antibody, V domains shown)
VH: ELQLVESGGGLVQPGGSLRLSCAASGFTFSSYGMSWVRQAPGKGLEWVSAINSYGGSTSYADSVKGRFTISRDNAKNTLYLQMNSLKPEDTAVYYCAKEVRADLSRYNDYESYDYWGQGTQVTVSS
VL: QPVLNQPSALSVTLGQTAKITCQGGSLGARYAHWYQQKPGQAPVLVIYDDDSRPSGIPERFSGSSSGGTATLTISGAQAEDEGDYYCQSADSSGSVFGGGTHLTVL
notes: llama VH on human IgG1 CH1-CH2-CH3, llama VL on human lambda CL
- protection from staurosporine, viability EC50, MLP29 cells [11]: 0.95 nM
- protection from staurosporine, viability EMAX, MLP29 cells [11]: 68.3%
- protection from staurosporine, viability EC50, MCF10A cells [12]: 1.48 nM
- protection from staurosporine, viability EMAX, MCF10A cells [12]: 66.8%

- OD450 (human MET ECD [1]): 3.38 AU
- OD450 (mouse MET ECD [2]): 3.08 AU
- koff (human MET ECD [3]): 0.00496 s⁻¹
- koff (mouse MET ECD [4]): 0.00458 s⁻¹
B3: 72F8 Fab (Fab, V domains shown)
VH: ELQLVESGGGLVQPGGSLRLSCAASGFTFSNYVMSWVRQAPGKGLEWVSDTNSGGSTSYADSVKGRFTISRDNAKNTLYLQMNSLKPEDTALYYCARSFFYGMNYWGKGTQVTVSS
VL: QSALTQPPSLSASPGSSVRLTCTLSSGNNIGSYDISWYQQKAGSPPRYLLNYYTDSRKHQDSGVPSRFSGSKDASANAGLLLISGLQPEDEADYYCSAYKSGSYRWVFGGGTHVTVL
notes: as for B1
